The results in this text go back to US20220380459A1 (DRAGONFLY THERAPEUTICS, published 2022).

B1: ADI-10157 IgG (antibody, V domains shown)
VH: QVQLQESGPGLVKPSETLSLTCTVSGGSISSYYWSWIRQPPGKGLEWIGSIYYSGSTNYNPSLKSRVTISVDTSKNQFSLKLSSVTAADTAVYYCARVGGVYSTIETYGMDVWGQGTTVTVSS
VL: EIVMTQSPATLSVSPGERATLSCRASQSVSSNLAWYQQKPGQAPRLLIYGASTRATGIPARFSGSGSGTEFTLTISSLQSEDFAVYYCQQYTVYPPTFGGGTKVEIK
notes: IgG; also called Ab13
B2: ADI-10164 IgG (antibody, V domains shown)
VH: QVQLQESGPGLVKPSETLSLTCAVSGYSISSGYYWGWIRQPPGKGLEWIGSIYHSGSTNYNPSLKSRVTISVDTSKNQFSLKLSSVTAADTAVYYCARLPPWFGFSYFDLWGRGTLVTVSS
VL: EIVLTQSPATLSLSPGERATLSCRASQSVSSYLAWYQQKPGQAPRLLIYDASNRATGIPARFSGSGSGTDFTLTISSLEPEDFAVYYCQQVDNYPPTFGGGTKVEIK
notes: IgG; also called Ab18
B3: ADI-10159 IgG (antibody, V domains shown)
VH: EVQLVESGGGLVQPGGSLRLSCAASGFTFSSYGMSWVRQAPGKGLEWVANIKQDGSEKYYVDSVKGRFTISRDNAKNSLYLQMNSLRAEDTAVYYCAREGGPYYDSSGYFVYYGMDVWGQGTTVTVSS
VL: DIQMTQSPSTLSASVGDRVTITCRASQSISSWLAWYQQKPGKAPKLLIYDASSLESGVPSRFSGSGSGTEFTLTISSLQPDDFATYYCQQYESFPTFGGGTKVEIK
notes: IgG; also called Ab1; G59
B4: ADI-11819 IgG (antibody, V domains shown)
VH: EVQLVESGGGLVKPGGSLRLSCAASGFTFSSYAMSWVRQAPGKGLEWVSSISSSSEGIYYADSVKGRFTISRDNAKNSLYLQMNSLRAEDTAVYYCAREGGPYYDSSGYFVYYGMDVWGQGTTVTVSS
VL: B3 VL with Q27N, D50E, L54T, E55K, E92D, S93D, F94L
notes: IgG; also called Ab8
B5: ADI-11776 IgG (antibody, V domains shown)
VH: EVQLLESGGGLVQPGGSLRLSCAASGFTFSKYTMSWVRQAPGKGLEWVSAIVGSGESTYFADSVKGRFTISRDNSKNTLYLQMNSLRAEDTAVYYCAREGGPYYDSSGYFVYYGMDVWGQGTTVTVSS
VL: B3 VL with D50K, E92D, S93D, F94L
notes: IgG; also called Ab3; H76
B6: ADI-11828 IgG (antibody, V domains shown)
VH: EVQLVESGGGLVQPGGSLRLSCAASGFTFSSYWMSWVRQAPGKGLEWVANINQDGSEVYYVDSVKGRFTISRDNAKNSLYLQMNSLRAEDTAVYYCARDVGPGIAYQGHFDYWGQGTLVTVSS
VL: DIQMTQSPSSLSASVGDRVTITCRASQSIYYYLNWYQQKPGKAPKLLIYAASSRQSGVPSRFSGSGSGTDFTLTISSLQPEDFATYYCQQVYDTPLTFGGGTKVEIK
notes: IgG; also called Ab27
B7: ADI-11826 IgG (antibody, V domains shown)
VH: EVQLVESGGGLVQPGGSLRLSCAASGFTFPGYWMSWVRQAPGKGLEWVANINQDGSEVYYVDSVKGRFTISRDNAKNSLYLQMNSLRAEDTAVYYCAREANYYGNVGDDYWGQGTLVTVSS
VL: B6 VL with Y31N, R54T, V91A, Y92F, D93H, T94V, L96I
notes: IgG; also called Ab26
B8: ADI-10163 IgG (antibody, V domains shown)
VH: QVQLQESGPGLVKPSQTLSLTCTVSGGSISSGGYYWSWIRQHPGKGLEWIGSIYYSGSTYYNPSLKSRVTISVDTSKNQFSLKLSSVTAADTAVYYCARDRLDYSYNYGMDVWGQGTTVTVSS
VL: B6 VL with Y30S, Y31S, A50G, R54L, D93S, T94A, L96F
notes: IgG; also called Ab17
B9: ADI-11830 IgG (antibody, V domains shown)
VH: B6 VH with Q53T
VL: B6 VL with S28V, Y31S, R54L, Q55K
notes: IgG; also called Ab9
B10: ADI-11825 IgG (antibody, V domains shown)
VH: B7 VH with P30G, V58E
VL: B6 VL with Y31N, S53N, R54L, Q55H, V91A, Y92F, D93H, T94V, L96I
notes: IgG; also called Ab25
B11: ADI-10160 IgG (antibody, V domains shown)
VH: B7 VH with P30S, G31S, V58K
VL: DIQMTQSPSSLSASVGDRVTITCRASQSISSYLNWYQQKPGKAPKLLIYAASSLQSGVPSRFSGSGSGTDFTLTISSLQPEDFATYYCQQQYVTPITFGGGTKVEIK
notes: IgG; also called Ab15
B12: ADI-11807 IgG (antibody, V domains shown)
VH: EVQLVESGGGLVQPGGSLRLSCAASGFTFGSYWMSWVRQAPGKGLEWVATIKQDGSEKSYVDSVKGRFTISRDNAKNSLYLQMNSLRAEDTAVYYCARPLNAGELDVWGQGTMVTVSS
VL: DIQMTQSPSTLSASVGDRVTITCRASQSISSWLAWYQQKPGKAPKLLIYEASSLESGVPSRFSGSGSGTEFTLTISSLQPDDFATYYCQQSQSYPPITFGGGTKVEIK
notes: IgG; also called Ab5; I07
B13: ADI-11809 IgG (antibody, V domains shown)
VH: B12 VH with G30P, Q53R, S59G
VL: B12 VL
notes: IgG; also called Ab6
B14: ADI-11835 IgG (antibody, V domains shown)
VH: QLQLQESGPGLVKPSETLSLTCTVSGGSISSTDYYWGWIRQPPGKGLEWIGSIGYSGTYYNPSLKSRVTISVDTSKNQFSLKLSSVTAADTAVYYCARETAHDVHGMDVWGQGTTVTVSS
VL: EIVLTQSPATLSLSPGERATLSCRASHSVYSYLAWYQQKPGQAPRLLIYDASNRATGIPARFSGSGSGTDFTLTISSLEPEDFAVYYCQQYDNLPTFGGGTKVEIK
notes: IgG; also called Ab10; I35
B15: ADI-11812 IgG (antibody, V domains shown)
VH: QVQLVQSGAEVKKPGASVKVSCKASGYTFEIYYMHWVRQAPGQGLEWMGIINPSSGSTVYAQKFQGRVTMTRDTSTSTVYMELSSLRSEDTAVYYCARGAGYDDEDMDVWGKGTTVTVSS
VL: DIQMTQSPSSVSASVGDRVTITCRASQGIDSWLAWYQQKPGKAPKLLIYAASSLQSGVPSRFSGSGSGTDFTLTISSLQPEDFATYYCQQAHSYPLTFGGGTKVEIK
notes: IgG; also called Ab24
B16: ADI-10161 IgG (antibody, V domains shown)
VH: EVQLVESGGGLVQPGGSLRLSCAASGFTFSSYWMSWVRQAPGKGLEWVANINQDGSEKYYVDSVKGRFTISRDNAKNSLYLQMNSLRAEDTAVYYCAREGGDSWYHAFDIWGQGTMVTVSS
VL: B15 VL with D30S, S53N, A91K, H92L, Y94L
notes: IgG; also called Ab16
B17: ADI-10177 IgG (antibody, V domains shown)
VH: B12 VH with G30S, T50N, S59Y
VL: B15 VL with S10T, V11L, G28S, D30S, A50E, Q55E, D70E, E81D, A91L, H92E
notes: IgG; also called Ab2
B18: ADI-11839 IgG (antibody, V domains shown)
VH: QVQLVQSGAEVKKPGASVKVSCKASGYTFSNYYMHWVRQAPGQGLEWMGWINPFSGGTRYAQKFQGRVTMTRDTSTSTVYMELSSLRSEDTAVYYCARDVGSSAYYYMDVWGKGTTVTVSS
VL: B15 VL with R24E, Q27K, D30S, S53D, H92F, S93L, Y94F, L96P
notes: IgG; also called Ab28
B19: ADI-11815 IgG (antibody, V domains shown)
VH: B15 VH with E30G, I31T, S55R
VL: B15 VL
notes: IgG; also called Ab7
B20: ADI-11801 IgG (antibody, V domains shown)
VH: QVQLVQSGAEVKKPGASVKVSCKASGYTFSDYYMHWVRQAPGQGLEWMGMINPSWGSTSYAQKFQGRVTMTRDTSTSTVYMELSSLRSEDTAVYYCAREAADGFVGERYFDLWGRGTLVTVSS
VL: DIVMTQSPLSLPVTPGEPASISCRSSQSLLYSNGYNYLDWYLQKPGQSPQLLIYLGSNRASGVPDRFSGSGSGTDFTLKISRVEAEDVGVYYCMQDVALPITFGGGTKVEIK
notes: IgG; also called Ab4
B21: ADI-11802 IgG (antibody, V domains shown)
VH: B20 VH with D31G, S54Y, W55G, S59R
VL: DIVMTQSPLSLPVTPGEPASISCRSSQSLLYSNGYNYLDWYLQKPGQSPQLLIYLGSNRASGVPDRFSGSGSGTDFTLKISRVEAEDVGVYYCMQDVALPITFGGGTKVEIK
notes: IgG; also called Ab23
B22: ADI-10173 IgG (antibody, V domains shown)
VH: B20 VH with S30T, D31S, M50I, W55G, S59T
VL: not shown
notes: IgG; also called Ab22

Numbering of substitutions follows the chain as printed.

In general, Kd refers to the constant that tells how readily two partners part at equilibrium. As usually defined, the koff is the rate constant with which the complex falls apart. The kon is the rate constant with which the complex forms. The low end stands for slower complex formation, the high end for faster complex formation.

This assay addresses T1, human CD33 extracellular domain (human, UniProt P20138 18-259).
T1 construct: soluble monomeric ECD; also called human CD33 ECD; hCD33
Description: BLI Octet, IgG loaded.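 Note: IgGs captured on AHC biosensors, exposed to 100 nM antigen for 3 min association then 3 min dissociation in buffer, kinetics fitted with a 1:1 binding model.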
Description: Briefly, ForteBio affinity measurements were performed by loading IgGs on-line onto AHC sensors. Sensors were equilibrated off-line in assay buffer for 30 min and then monitored on-line for 60 seconds for baseline establishment. Sensors with loaded IgGs were exposed to 100 nM antigen for 3 minutes, and afterwards were transferred to assay buffer for 3 min for off-rate measurement. All kinetics were analyzed using the 1:1 binding model.
Regarding B1, binding was characterised by a dissociation constant (Kd) of 4.2 nM, the off-rate constant (koff) was 0.000336 s⁻¹ and the kon worked out at 79900 M⁻¹ s⁻¹.
For B2, the Kd was determined as 4.3 nM, the koff was determined as 0.00148 s⁻¹ and the kon was 344000 M⁻¹ s⁻¹.
In the case of B3, the Kd is at most 0.575 nM, the koff is at most 0.0002 s⁻¹ and the kon was determined as 348000 M⁻¹ s⁻¹.
On the same counts, the results for B4 are 0.243 nM, 0.0002 s⁻¹ and 824000 M⁻¹ s⁻¹.
B5 registered a Kd of 0.294 nM, a koff of 0.0002 s⁻¹ and an on-rate (kon) of 679000 M⁻¹ s⁻¹.
On the same counts, the results for B6 are 0.81 nM, 0.000533 s⁻¹ and 658000 M⁻¹ s⁻¹.
On the same counts, the results for B7 are 0.393 nM, 0.000243 s⁻¹ and 619000 M⁻¹ s⁻¹.
Take B8: the Kd came out at 6.8 nM.
As to B9, the Kd is 1.2 nM, the koff came out at 0.000923 s⁻¹ and the kon turned out to be 770000 M⁻¹ s⁻¹.
On the same counts, the results for B10 are 0.54 nM, 0.000376 s⁻¹ and 696000 M⁻¹ s⁻¹.
The like results for B11 were, in that order, 5.1 nM, 0.00325 s⁻¹ and 638000 M⁻¹ s⁻¹.
In turn, B12 yielded a Kd of 0.307 nM, a koff of 0.0002 s⁻¹ and a kon of 651000 M⁻¹ s⁻¹.
Turning to B13, the Kd was found to be 0.313 nM, the koff was determined as 0.0002 s⁻¹ and the kon came to 638000 M⁻¹ s⁻¹.
On the same counts, the results for B14 are 0.281 nM, 0.000237 s⁻¹ and 844000 M⁻¹ s⁻¹.
Take B15: the Kd turned out to be 1.91 nM, the koff turned out to be 0.000315 s⁻¹ and the kon was 166000 M⁻¹ s⁻¹.
As to B16, the Kd was 3.7 nM, the koff came to 0.00217 s⁻¹ and the kon was found to be 587000 M⁻¹ s⁻¹.
On the same counts, the results for B17 are 3.6 nM, 0.00214 s⁻¹ and 601000 M⁻¹ s⁻¹.
In turn, B18 showed a Kd of 2.45 nM, a koff of 0.00172 s⁻¹ and a kon of 704000 M⁻¹ s⁻¹.
The like results for B19 were, in that order, 1.44 nM, 0.000229 s⁻¹ and 159000 M⁻¹ s⁻¹.
For the molecule B20, binding was characterised by a dissociation constant (Kd) of 0.457 nM, the koff was 0.0002 s⁻¹ and the kon is 438000 M⁻¹ s⁻¹.
In turn, B21 returned a Kd of 0.453 nM, a koff of 0.0002 s⁻¹ and a kon of 441000 M⁻¹ s⁻¹.
B22 gave a Kd of 9.7 nM.
